Test: soluble on expression in E. coli; label from the status in PepcDB or PDB records

| Sequence | soluble on expression in E. coli |
| --- | --- |
| MTTTLSPDTARQIVPPEERYAAELAFLAAYDDGPRPPAWRLTPRAVVTFVMGSDGRALRLPEGAETPEGVPRRLTVEGKFVGDRSLVERCVVTLAGERGLLLVGEPGTAKSMLSELLSAAVCGTSGLVVQGTAGTTEDQLKYGWNYALLLAQGPSRTALVPSPVLTAMARGGIARVEEVTRCLPEVQDALVSLLSERRIAVPELSGTDDALAHAAPGFNLIATANLRDKGVSEMSAALKRRFNFETVGPIPDLDAETALVRSQARASVERAGAPFKVDEAVLEALVVAFRDLREGRSTEGWEVERPSTVMSTAEAVSVAGALGLAAAYFPGDRDVLGLLPGHLLGVVRKDDPADAARLRGYWDGPVRRRAEQGSATWRTLWDLRTVLEGLEHHHHHH | not soluble |
| MTTTMSTLPVVLVDEILARVPITSLRSLRSTCKKWEASSKTNLVGGKATARKSSHVGFILIGDKICSMKLDLNGGDDFVDTSVNQVSAFDGFAISQLFHCDGLLFCISNNHYSNYTLMVCNMYLGETRLIQNRSLFESYQNFCSYAFGYDSSKNRNHKILRNNSVSGGYEIYSLKSDSWKDLNVDLEKSIHLWRLGSVSLKGNAYFRVIKVIEEGVWEYNLLCFDFTRESFGKLLSLPFESLGDEGEGIMVISCVRDDHLAVLYQRDTLGIWISTEIEPNKVSWREFLQVDLATLDGFPDVFIAGRFIVDEEKQVVVVFGQETELDLNHGNAFIFGRDGYFTSFTVGDAPPEDFTSYVPSLVSLQIDKTGKRKARDD | soluble |
| MTTVSEQANFTFSPEEVARFERDGYIGPVKIFEPEEMTRRWNIIRRQLLDRSLAIYPDSNGKANISNYDRHLDIDLLAEHIMRPEIVDRVGSLIGRNLLCWRSEFFPKYQGDEGTDWHQAATFAHATGKPQIIWPSDEGRPAFIGTITVWTAFTHSTEQNGCLQLMPGTHTSMNYDESKGMDYDADAINQREKDGIKRGFFGYDYRSLQKDPDWKPDESQAYPMVLKPGEAVIFWSNTMHASLPHTGSKTDYRMGFAARYVPTQVQVYPGTENLTEYGDGINLEKYGAVLTSGVDEYGHNRIARTSQRGYEFVPRQIPS | soluble |
| MTVDDIMVPRSEIIGIDINDDWKSILRQLSHSPHGRIVLYRDSLDDAISMLRVREAWRLMSEKKEFTKETMLRAADEIYFVPEGTPLSTQLVKFQRNKKKVGLVVNEYGDIQGLVTVEDILEEIVGDFTTSMSPTLAEEVTPQNDGSVIIDGTANVREINKAFNWHLPEDDARTVNGVILEALEEIPVAGTRVRIGKYDIDILDVQDNMIKQVKVFPVKPLRESVAE | not soluble |
| MTVDTEKQQVVRPRNEIAAADCWDVSPLYPNREDWKADLDSFGLKTDGSPTWPELQATQYQLEDSESLLSLLTKLFSVERKLDKLYVYAHLVHDQDITNQEGVADLKSITHLHILFSEEISWIQPALIGLSEPIIAQHLSAPCLAPYRFYLEKIFRLSMHTGTPGEEKILASAFAPFEVASKAFSSLSDSEIPFGQAMDSEGNSHPLSHALASLYMQSTDRELRKTAYLAQCERYYNYRHTFANLLNGKIQAHLFYAKNKKYGSCLESALYHNNIPTTVYTNLMDIVKKNASLITKYYSLKQKALNIKDFHFYDVYAPLSQSEEKKYSYEEAVDLIYDSLSPLGTEYVDILKQGLTTEGWVDKYENLNKRSGAYSSGCYDSYPYILLNYTGTLYDVSVIAHEGGHSMHSYFSRKNQSFHDAQYPIFLAEIASTLNEMLLMDSMLKKSNSKEEKITILTRCLDTIFSTLFRQVLFASFEYEVHSAAEQGIPLTEEYLSSTYKNLQNDFYGGIITFDTLSNIEWARIPHFYYNFYVYQYATGIIAALCFAERILNKEDNALESYMNFLKSGGSDFPLEILKKSGLDMATSEPIYKAFSFIERKIQELSSLI | soluble |
| MTVIVGPKTKPPEAIKDASMARQKQMVNAHYDRLASAKERGEKVAATFVPGNLNELLMCFDMVNNLPEVNAIQNGLRRQSGGYVMEAEKLGHSEDVCTYVKSDIGMMAKGNIGPNGKPLPDPDVLLLSYTGCFTFMKWFELLRRQYKCETIMFQTPYLADGRITKDMISYMVKQLRQDVIPKLERISGVKFDIDRLREYLRKSAKAEDDHVWVLQSAKHKPSPIDAYFGGIYYIGPIFGAFRGTDDAIEYYKFLRAEVEQRIAQGKGPVTPDGDMGQERYRLVVEGPPNYTNFRQFWKMFYDEGAVVVASSYTKVGGTYDYGFRHDPDRPLESLAEYCLNVYTNRNLPMRVDMLENYINEYEADGLLINSIKSCNSFSAGQLLMMREVEKRTGKPAAFIETDLVDPRYFSAANVKNRLESYFQMIEQKRAGFRGAA | not soluble |
| MTVIYQTTITRIGASAIDALSDQMLITFREGAPADLEEYCFIHCHGELKGALHPGLQFSLGQHRYPVTAVGSVAEDNLRELGHVTLRFDGLNEAEFPGTVHVAGPVPDDIAPGSVLKFESVKE | not soluble |
| MTVNDKKRLAIIGGGPGGLAAARVFSQSLPNFEIEIFVKDYDIGGVWHYPEQKSDGRVMYDHLETNISKKLMQFSGFPFEENVPLYPSRRNIWEYLKAYYKTFIANKDAISIHFSTEVTYLKKKNSQWEITSKDELRTTKSDFDFVIVASGHYSVPKLPTNIAGLDLWFDNKGAFHSKDFKNCEFAREKVVIVVGNGSSGQDIANQLTTVAKKVYNSIKEPASNQLKAKLIETVQTIDSADWKNRSVTLSDGRVLQNIDYIIFATGYYYSFPFIEPSVRLEVLGEGVTGDKHSSVNLHNLWEHMIYVKDPTLSFILTPQLVIPFPLSELQAAIMVEVFCKSLPITTTFDSNACGTHNFPKERTWNTMQNYRNY | soluble |
| MTVPPTATHQPWPGVIAAYRDRLPVGDDWTPVTLLEGGTPLIAATNLSKQTGCTIHLKVEGLNPTGSFKDRGMTMAVTDALAHGQRAVLCASTGNTSASAAAYAARAGITCAVLIPQGKIAMGKLAQAVMHGAKIIQIDGNFDDCLELARKMAADFPTISLVNSVNPVRIEGQKTAAFEIVDVLGTAPDVHALPVGNAGNITAYWKGYTEYHQLGLIDKLPRMLGTQAAGAAPLVLGEPVSHPETIATAIRIGSPASWTSAVEAQQQSKGRFLAASDEEILAAYHLVARVEGVFVEPASAASIAGLLKAIDDGWVARGSTVVCTVTGNGLKDPDTALKDMPSVSPVPVDPVAVVEKLGLA | soluble |
| MTVTIKELTNHNYIDHELSATLDSTDAFEGPEKLLEIWFFPHKKSITTEKTLRNIGMDRWIEILKLVKCEVLSMKKTKELDAFLLSESSLFVFDHKLTMKTCGTTTTLFCLEKLFQIVEQELSWAFRTTQGGKYKPFKVFYSRRCFLFPCKQAAIHQNWADEVDYLNKFFDNGKSYSVGRNDKSNHWNLYVTETDRSTPKGKEYIEDDDETFEVLMTELDPECASKFVCGPEASTTALVEPNEDKGHNLGYQMTKNTRLDEIYVNSAQDSDLSFHHDAFAFTPCGYSSNMILAEKYYYTLHVTPEKGWSYASFESNIPVFDISQGKQDNLDVLLHILNVFQPREFSMTFFTKNYQNQSFQKLLSINESLPDYIKLDKIVYDLDDYHLFYMKLQKKI | soluble |
| MTVYFIGAGPGAADLITVRGQRLLQRCPVCLYAGSIMPDDLLAQCPPGATIVDTGPLTLEQIVRKLADADADGRDVARLHSGDPSLYSALAEQCRELDALGIGYEIVPGVPAFAAAAAALKRELTVPGVAQTVTLTRVATLSTPIPPGEDLAALARSRATLVLHLAAAQIDAIVPRLLDGGYRPETPVAVVAFASWPQQRTLRGTLADIAARMHDAKITRTAVIVVGDVLTAEGFTDSYLYSVARHGRYAQ | not soluble |
| MTWLDEKGRFAIYEAPQNCPYLGTIGACYEFGSLPVILMFPELEKSFLKLLIRHIREDGYVPHDLGYHSLDSPIDGTTSPPRWKDMNPSLILLVYRYFKFTNDIEFLKEVYPILVKVMDWELRQCKGNLPFMEGEMDNAFDATIIKGHDSYTSSLFIGSLIAMREIAKLVGDSNYVDFISEKLSSAREAFRRMFNGRYFKAWDSVDNASFLAQLYGEWFTTLVGLEDIVEEDIIKKALESIIRLNGNASPHCVPNLVDDNGKIVGLSVQTYSSWPRMVFAICWLAYKKGVGDLSFCKKEWDNLVKNGMVWDQPSRINGYNGKAEMNYLDHYIGSPSPWSFLFLEHHHHHH | not soluble |
| MTWQPFYVGTGQAPAGAEEQVVLPPAPPWREFPRRSQHRQFVPPPRLAEAVNAALALRRPLLVTGPAGSGKSTVIEQVAAELALGDVLRWHITSRSSLAEALYRYDALGRIHAQRLEGPGGSDDIAPFLRMGPLGTALLPSARPRALLIDEIDKSDLDLPSDLLDVLERGEFEIPELARYGTDVVPVREHGGERTHLIARGRVQCAEFPFIVMTSNGDRDFPAAFLRRCIRFTMPLPTPETLLRVVEAHMGPEKAAADETGRLITVFLERLTAGESLAVDQLLNAVHLLTGDGAPGDDRRQAIAELILRELSHALEHHHHHH | not soluble |
| MTYETVERSKKSQVNLNNKEPFSVLLLGIDTGDDGRVEQGRSDTTIVATVNPRDKQTTLVSLARDTYVDIPGQGKQDKLNHAYAFGGASLAMDTVENYLNIPINHYVSINMAGLKELVNAVGGIEVNNNLTFSQDGYDFTIGKISLDGEQALSYSRMRYEDPNGDYGRQERQRKVIEGIVQKVLSLNSVSNYQEILTAVSDNMKTDLSFDDMKKIALDYRSAFGKVKQDQLQGTGFMQDGVSYQRVDEQELTRVQQELKNQLNTKLEHHHHHH | soluble |
| MTYIIREMKQEDIHAVQSVAKIAWHDTYEGIIPREIQDSFLDEAYSDEKMKYRLKNTHLFVAEEEGEVIGFANFSPVRLQNEAELGAIYLLPDQQGKGIGSALLQRGIKALNGIRKLYIHVEAANEKGKRFYEAKGFAELEQFEEDFEGHMMQTVRMVLYV | not soluble |
| MVAENQPGHIDQIKQTNAGAVYRLIDQLGPVSRIDLSRLAQLAPASITKIVREMLEAHLVQELEIKEAGNRGRPAVGLVVETEAWHYLSLRISRGEIFLALRDLSSKLVVEESQELALKDDSPLLDRIISHIDQFFIRHQKKLERLTSIAITLPGIIDTENGIVHRMPFYEDVKEMPLGEALEQHTGVPVYIQHDISAWTMAEALFGASRGARDVIQVVIDHNVGAGVITDGHLLHAGSSSLVEIGHTQVDPYGKRCYCGNHGCLETIASVDSILELAQLRLNQSMSSMLHGQPLTVDSLCQAALRGDLLAKDIITGVGAHVGRILAIMVNLFNPQKILIGSPLSKAADILFPVISDSIRQQALPAYSQHISVESTQFSNQGTMAGAALVKDAMYNGSLLIRLLQG | soluble |
| MVAKISVGSSLFGALSYNQNKVDEEQGKVLLSNRMFESEDGNFSIRRCMECFDMHLPADLKTEKPIIHISLNPHPDDVLSDSQLADIAKEYMDKLGYGNQPYMVYKHEDIARHHIHIVSIRVDDTGKKINDKFEHIRSKQITRELEQKYGLHPAEKKQAADRPELKKVDYRAGDVKHQLSNTVKALASSYRFQSFTEYKALLSIYNVQAEEVKGEVNGKPYNGIVYSATNDKGEKQGNPFKSSSLGKSVGYEAIQRHIKKSTKDIQDKNLKERTRRTVGAVMKSAHSRKELEQELKRKGIDVLFRQNDTGRIYGVTFIDHENRTVLNGSRLGKDFSANVFNDLFSGSRTLSGNSKQETQEQKPEYNPTGHLENTGKAIAGLFSLLSGGNDTPPDNSQVPPPKKKKKKKQRRILEHHHHHH | soluble |
| MVARIYRPAKTAMQSGKAKTDQWLLEYEPEKPRVVEPLMGYTSSGDMKSQIRLFFASQEEAVAYATRNDIPYRLMEPHEPKRRKVSYSDNFRFDRPQPWTHLEHHHHHH | not soluble |
| MVCIAAKCGNECSQCKHCHYALEQMSALAQGEKTSGLCPKLETCVFNCLTEDVSKVLSCVATRCNVHCYDGDCPSCKMISRRIFSNICKQHSMTTQPQIKYEGTCPNLFMELADDYVAMKKKKL | not soluble |
| MVCWSSHTASKQGNLMNQFYVHVRLFEDTAEQTKKFEELMLNFLYQKTVKESDDSCCRLIPEGYILKSTMNCQQILDQTFSIANSAGVDANIFVCKFEQSACLLPSASLVGNDFVHYDLTPKPIKLDS | not soluble |

Source: the DeepSol protein solubility set
